The values that follow come from publication PMC12162048 (Blood Vessels, Thrombosis & Hemostasis, 2024).

The target of test [1] is T1, protein S, purified, P07225.
T1 chain: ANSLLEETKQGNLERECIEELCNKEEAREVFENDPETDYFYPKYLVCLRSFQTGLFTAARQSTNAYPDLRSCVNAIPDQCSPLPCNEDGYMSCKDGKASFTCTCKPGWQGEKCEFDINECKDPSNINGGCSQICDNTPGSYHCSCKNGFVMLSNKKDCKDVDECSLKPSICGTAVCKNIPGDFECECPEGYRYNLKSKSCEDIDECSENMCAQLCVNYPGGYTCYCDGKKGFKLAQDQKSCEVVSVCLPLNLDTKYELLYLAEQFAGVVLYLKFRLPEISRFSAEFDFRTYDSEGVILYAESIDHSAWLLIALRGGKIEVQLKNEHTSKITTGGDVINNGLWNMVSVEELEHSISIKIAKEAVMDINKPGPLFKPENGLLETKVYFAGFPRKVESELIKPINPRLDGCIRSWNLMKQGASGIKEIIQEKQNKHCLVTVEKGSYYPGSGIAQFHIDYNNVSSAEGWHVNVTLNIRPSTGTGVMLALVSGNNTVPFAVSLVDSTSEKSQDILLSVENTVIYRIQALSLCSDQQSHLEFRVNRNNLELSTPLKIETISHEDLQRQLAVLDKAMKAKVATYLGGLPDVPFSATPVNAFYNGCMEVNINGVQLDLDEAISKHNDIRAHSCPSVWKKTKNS
Put plainly: native gel or EMSA. The conditions noted are these: remark: other sources report otherwise. A general note: Mobility shift assays separate free from complexed probe on a gel.

Test [2] addresses von Willebrand factor of plasma (human (endogenous in plasma), UniProt P04275 764-2813). As to the kind of experiment: ELISA. For orientation: An ELISA detects its analyte on a solid surface through an enzyme-linked reagent.

B1: protein S, purified, P07225 42-676 (natural protein)
chain: T1 chain
For orientation: stoichiometry N means the number of molecules, sites or subunits per partner or assembly. For the molecule B1, the stoichiometry N in test [1] was found to be 2.

B2: biotinylated protein S (natural protein)
chain: T1 chain
modifications: biotin (biotinylated, sites not stated)
Turning to B2, the “fold change of the apparent interaction with MerTK against without MerTK” value in test [2] was approximately 2 fold.
